Measurements published in patent US8119594B1, “Method of modulating integrin mediated cellular activity and agents useful for same” (Inter-K Pty Limited, priority 1999, dated 2012).
Where a SMILES comes first, the peptide text is derived from it. Where no end group is shown, it is not given here. The star is where a group is joined. Biotin = O=C1N[C@H]2[C@H](CS[C@H]2CCCCC(=O)*)N1

Key:
[1] = molecular target: T1, ERK2 (Mus musculus, UniProt P63085); test: ELISA binding of ERK2 to biotinylated integrin cytoplasmic domain peptides; details: for binding of ERK2 to integrin β subunit cytoplasmic domain peptides: corrected for non-specific binding, FIG. 34; for binding of non-phosphorylated ERK2: over a range of concentrations of ERK2, compared to fragments 1, 3 and 4, FIG. 18; for binding of GST.ERK2 to shorter test peptides: range of peptide concentrations, seq. 4 compared to fragment 2, seq. 3 compared to seq. 4, FIG. 20; for binding of ERK2 (thrombin cleaved): ERK2 cleaved from GST-ERK2 by thrombin, compared to seq. 4, FIG. 23
T1 construct: made in house
Protocol: Peptide fragments corresponding to regions of the cytoplasmic tail domain of the β6 subunit were screened in an enzyme-linked immunosorbent assay (ELISA) for binding with ERK2. The […] β6 cytoplasmic tail is shown in FIG. 16 as are the amino acid sequences for the cytoplasmic domains of the β1 to β3 subunits. In particular, four synthetic peptides designated fragment 1 to fragment 4 were prepared and biotinylated at the N-terminal end of each, respectively (Auspep Pty Ltd, Melbourne Australia).
(§1) Overlapping biotinylated fragments 1 to 4 were coated onto streptavidin coated polystyrene plates (Pierce, Rockford Ill. USA, Cat No. 15125) and the ELISA performed substantially according to manufacturers instructions. Briefly, wells are washed with 3×200 μl of wash buffer (TBS, 0.1% BSA, 0.05% Tween 20 or SuperBlock™ blocking buffer in TBS, Pierce, Prod. No. 37535) prior to addition of biotinylated peptides (100 μl) and incubation for 1 hr at room temperature to allow for capture of the peptides on the plate. Following another washing step, peptides were overlayed with GST-ERK, ERK (or JNK-1) alone at a volume of 100 μl per well, and the plates incubated for a further 1 hr at room temperature before removal of any unbound ERK by further washing.
Binding of ERK to the peptides is detected using 100 μl anti-ERK1/2 mAb SC1647 (Santa Cruz) as the primary antibody at a dilution of 1:700 (isotype matched antibody IgG2b is used as a control). This is followed by another washing step and addition of 100 μl rabbit anti-mouse antibody (Biorad) conjugated to alkaline phosphatase at a concentration of 1:1000 for 30 minutes again at room temperature. A 100 μl aliquot of detection reagent (alkaline phosphatase detection kit-Biorad) is then introduced into each well after a final washing step and allowed to react for 15-30 minutes at room temperature in the dark before absorbance is measured at 405 nm. All dilutions of peptides, MAP kinase and antibodies were performed using the wash buffer. GST-ERK is a fusion protein consisting of ERK coupled to glutathione-S-transferase and purified from host cells transfected with pGEX vector.

[2] = tested on: HT29 colon cancer cells; test: WST-1 cell proliferation assay in HT29 cells; assay type: cell-based, human; details: 10 μm, 24 hours, serum-free medium, FIG. 28
Protocol: HT29 and SW480 β6-expressing colon cancer cell lines were seeded into wells of 96-well microtitre plates (Nunclon) in Dulbecco's Modified Eagle's Medium (DMEM) supplemented with 10% foetal bovine serum, glutamine, Hepes, and antibiotics. […] The cell proliferation reagent WST-1 is designed to be used for the non-radioactive, spectrophotometric quantification of cell growth and viability in proliferation and chemosensitivity assays. […]
In particular, at the termination of experiments, 30 μl of WST-1 was added to 270 μl culture medium volume in each microtitre well and the colour change quantitated in an ELISA plate reader by measuring absorbance of the formazan product at 450 nm (using a reference wavelength of more than 600 nm). The mean absorbance readings from triplicate wells (±standard error of the means) after subtraction of background control wells (culture medium without cells) was determined.

[3] = tested on: SW480 β6-expressing colon cancer cells; details: for inhibition of cell proliferation (WST-1): SW480 β6-expressing, 30 μm, 24 hours, serum-free medium, FIG. 29
Protocol: HT29 and SW480 β6-expressing colon cancer cell lines were seeded into wells of 96-well microtitre plates (Nunclon) in Dulbecco's Modified Eagle's Medium (DMEM) supplemented with 10% foetal bovine serum, glutamine, Hepes, and antibiotics. Seeding cell densities were 3×10^3 cells per triplicate well for each condition tested and after 24 hours incubation of cell cultures in 5% CO2, 100% humidity at 37° C., the culture medium was exchanged for serum-free DMEM medium supplemented with insulin, transferrin, selenous acid, hydrocortisone, non-essential amino acids, glutamine, Hepes and antibiotics containing either peptide [sequence] (SEQ ID NO. 2) alone or penetratin-peptide complex at a concentration of 10 μm for HT29 cells or 30 μm for SW480 β6-expressing cells. Cell cultures were incubated for a further 24 hours following which cultures were photographed (Kodak Techpan Film at 100 ASA setting) and the experiments terminated by addition of the cell proliferation reagent WST-1 (Boehringer Mannheim) to monitor effects of the peptide on cell growth.
SW480 mock and SW480 β6 transfectants were cultured in DMEM medium supplemented with 1% foetal bovine serum in the presence of 20 μM seq. […] Percentage inhibition was assessed by the WST-1 colorimetric dehydrogenase assay described in Example 6.
Growth inhibition of SW480 cells expressing full length wild-type β6 exposed to seq.4 coupled to penetratin or [sequence] (SEQ ID NO. 2) peptide coupled to penetratin (5, 10, 20, 30 μM in DMEM minus foetal bovine serum) but which peptide contained alanine substitutions at the four positions indicated was assessed.

[4] = molecular target: T2, JNK-1 (Homo sapiens, UniProt P45983); test: ELISA binding of JNK-1 to β6 cytoplasmic tail peptide; details: JNK-1 0.05-1.5 μm/100 μl; increasing peptide concentrations; FIG. 24
T2 construct: purchased Santa Cruz
Protocol: as §1
Briefly, 0.05-1.5 μm/100 μl of JNK-1 (Santa Cruz) was aliquoted into wells of a 96 well culture place containing increasing concentrations of the β6 cytoplasmic domain tail peptide used in Example 3. For comparison purposes, non-phosphorylated GST-ERK2 (0.05-1.5 μm/100 μl) was aliquoted into wells containing β6 cytoplasmic tail peptide or peptide fragments 1 or 2, respectively. Binding of JNK-1 was detected using mouse anti-JNK-1 mAb SC 474-G (Santa Cruz) and HRP-conjugated goat anti-mouse antibody.

[5] = tested on: p42/p44 MAP kinase activity in WiDr cells; test: MAP kinase assay in WiDr cells after serum stimulation; assay type: cell-based, human; details: WiDr wild-type; inhibitor 40 μM added one hour before serum
Protocol: (§2) Cultures of WiDr and HT29 mock and antisense β6 transfectants were established by seeding 1×10^6 cells/5 ml of culture medium in 25 cm^2 tissue culture flasks. Cells were incubated at 37° C. in humidified CO2 for 24 hours before serum starvation in serum-free medium for the next 16 hours. Foetal calf serum was then added to a final concentration of 10% for 30 mins before MAP kinase assays were performed. […] The ability of cells to transfer phosphate from [γ^32P]-ATP to a synthetic peptide that contains specifically a p42/p44 MAP kinase phosphorylation site was measured as described in the manufacturer's instructions. [^32P]-labelled peptides were spotted onto PE1-cellulose paper, unbound radioactivity was washed with 75 mM phosphoric acid and bound [^32P]-labelled peptides were measured by liquid scintillation counting. Protein estimation was performed on each cell lysate used and enzyme activity calculated as described in the manufacturer's instructions. […]
(§3) The effect of MEK (MAP kinase kinase) inhibitors U0126 and PD98059 on MAP kinase activity in WiDr and HT29 wild-type cells was tested in the absence/presence of serum. […] Serum was then added for 30 min and MAP kinase activity assessed before and after addition of serum. […]

[6] = tested on: p42/p44 MAP kinase activity in HT29 cells; test: MAP kinase assay in HT29 cells after serum stimulation; assay type: cell-based, human; details: HT29 wild-type; inhibitor 40 μM added one hour before serum
Protocol: as §2, §3

[7] = tested on: gelatinase B secretion by SW480 β6 transfectants; test: Gelatinase B secretion by gelatin zymogram; assay type: cell-based, human; details: 40 μM; 48 hours; serum-free; compared with controls
Protocol: SW480 β6 transfectants were cultured under serum-free conditions for 48 hours in the absence/presence of the MEK inhibitor PD98059 (40 μM) or DMSO (vehicle control). Tumour-conditioned medium was assayed for gelatinase B by analysis of equal protein loads in a gelatin zymogram.

T1 sequence (P63085 whole entry, the tested form may be a part): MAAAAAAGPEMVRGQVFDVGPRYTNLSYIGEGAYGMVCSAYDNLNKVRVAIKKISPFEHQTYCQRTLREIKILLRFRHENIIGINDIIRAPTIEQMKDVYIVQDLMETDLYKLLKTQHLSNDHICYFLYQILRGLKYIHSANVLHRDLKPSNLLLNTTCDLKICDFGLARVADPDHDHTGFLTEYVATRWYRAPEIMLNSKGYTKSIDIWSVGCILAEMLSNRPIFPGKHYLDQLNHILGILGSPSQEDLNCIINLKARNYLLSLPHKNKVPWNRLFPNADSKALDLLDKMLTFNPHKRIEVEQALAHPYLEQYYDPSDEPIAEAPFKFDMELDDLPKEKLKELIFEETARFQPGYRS
T2 sequence (P45983 whole entry, species assumed): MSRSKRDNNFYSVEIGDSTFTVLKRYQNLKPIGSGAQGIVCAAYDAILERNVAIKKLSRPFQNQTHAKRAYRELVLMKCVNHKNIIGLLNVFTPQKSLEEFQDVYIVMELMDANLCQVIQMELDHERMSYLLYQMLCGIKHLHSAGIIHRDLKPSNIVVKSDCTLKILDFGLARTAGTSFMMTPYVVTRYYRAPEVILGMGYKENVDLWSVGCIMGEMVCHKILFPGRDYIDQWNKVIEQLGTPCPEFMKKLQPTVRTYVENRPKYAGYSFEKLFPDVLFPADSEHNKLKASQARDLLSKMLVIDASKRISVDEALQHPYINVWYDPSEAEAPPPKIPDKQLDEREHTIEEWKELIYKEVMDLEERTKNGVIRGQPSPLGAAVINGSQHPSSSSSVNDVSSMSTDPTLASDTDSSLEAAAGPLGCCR

“RSRARYEMASNPLYR (HOMO SAPIENS) [β5, peptide corresponding to a region of the β5 cytoplasmic domain]” was tested, and the “binding of ERK2 to integrin β subunit cytoplasmic domain peptides” value [1] was “also found”.
In the case of `CC[C@H](C)[C@H](NC(=O)[C@H](CCCCN)NC(=O)[C@@H](NC(=O)[C@H](CCC(N)=O)NC(=O)[C@@H](N)CCCNC(=N)N)[C@@H](C)CC)C(=O)N[C@@H](Cc1c[nH]c2ccccc12)C(=O)N[C@@H](Cc1ccccc1)C(=O)N[C@@H](CCC(N)=O)C(=O)N[C@@H](CC(N)=O)C(=O)N[C@@H](CCCNC(=N)N)C(=O)N[C@@H](CCCNC(=N)N)C(=O)N[C@@H](CCSC)C(=O)N[C@@H](CCCCN)C(=O)N[C@@H](Cc1c[nH]c2ccccc12)C(=O)N[C@@H](CCCCN)C(=O)N[C@@H](CCCCN)C(=O)N[C@@H](CCCNC(=N)N)C(=O)N[C@@H](CO)C(=O)N[C@@H](CCCCN)C(=O)N[C@@H](C)C(=O)N[C@@H](CCCCN)C(=O)N[C@@H](Cc1c[nH]c2ccccc12)C(=O)N[C@@H](CCC(N)=O)C(=O)N[C@H](C(=O)NCC(=O)N[C@H](C(=O)N[C@@H](CC(N)=O)C(=O)N1CCC[C@H]1C(=O)N[C@@H](CC(C)C)C(=O)N[C@@H](Cc1ccc(O)cc1)C(=O)N[C@@H](CCCNC(=N)N)C(=O)O)[C@@H](C)O)[C@@H](C)O` [penetratin-peptide complex] (H-RQIKIWFQNRRMKWKKRSKAKWQTGTNPLYR-OH; N-terminus and C-terminus assumed), the “inhibition of cell proliferation (WST-1)” value [2] is reported as “effective in inhibiting cell proliferation”, the “growth inhibition, dose response” value ([3]; SW480 full length wild-type β6, 5, 10, 20, 30 μM in DMEM minus foetal bovine serum, FIG. 33) is reported as “progressive inhibition of proliferation in a dose-response manner” and the “inhibition of cell proliferation (WST-1)” value [3] is reported as “effective in inhibiting cell proliferation”.
For “RARAKWDTANNPLYK (HOMO SAPIENS) [β3, peptide corresponding to a region of the β3 cytoplasmic domain]”, the “binding of ERK2 to integrin β subunit cytoplasmic domain peptides” value [1] was “also found”.
“RSKAKWQTGTNPLYRGSTST (Biotin-RSKAKWQTGTNPLYRGSTST) [fragment 2, N-terminally biotinylated synthetic peptide of the β6 cytoplasmic tail]” was tested, and the “binding of non-phosphorylated GST.ERK2 to peptide fragment” value ([1]; GST.ERK2 0.25 μg/100 μl, peptide 1 μg/100 μl, FIG. 17) was “significant binding” and the “binding of non-phosphorylated ERK2” value [1] was “Significant binding”.
With “β6 cytoplasmic tail peptide: peptide of the cytoplasmic tail domain of the integrin β6 subunit (HDRKEVAKFEAERSKAKWQTGTNPLYRGSTSTFKNVTYKHREKQKVDLSTDS; HOMO SAPIENS)” the “binding of non-phosphorylated ERK2” value [1] was “Significant binding” and the “binding of JNK-1” value [4] was “Significant binding”.
For `N#CC(=C(/N)Sc1ccccc1N)/C(C#N)=C(\N)Sc1ccccc1N` [U0126], the “serum-stimulated MAP kinase activity” value [5] was “inhibitable” and the “serum-stimulated MAP kinase activity” value [6] was “inhibitable”.
`COc1cccc(-c2cc(=O)c3ccccc3o2)c1N` [PD98059] was tested, and the “serum-stimulated MAP kinase activity” value [5] was “inhibitable”, the “serum-stimulated MAP kinase activity” value [6] was “inhibitable” and the “gelatinase B secretion” value [7] was “reduced gelatinase B secretion”.
“RSKAKWQTGT (HOMO SAPIENS) [seq. 3, 10 mer test peptide from the β6 cytoplasmic tail]” was tested, and the “binding of GST.ERK2 to shorter test peptides” value [1] was “substantially less”.
RSKAK (HOMO SAPIENS) [5 mer peptide] was tested, and the “binding of ERK2 (thrombin cleaved)” value [1] was “Negligible binding”.
For “RSKAKNPLYR (HOMO SAPIENS) [10(4), 4 is omitted]”, the “binding of ERK2 (thrombin cleaved)” value [1] was “Comparable binding”.
With RSKAKWQTGTNPLYR (HOMO SAPIENS) [seq. 4] the “binding of ERK2 to integrin β subunit cytoplasmic domain peptides” value [1] was “significant binding”, the “binding of GST.ERK2 to shorter test peptides” value [1] was “no reduction in binding” and the “inhibition of cell proliferation (WST-1)” value [2] was “Only the carrier penetratin-peptide complex was effective”. For the same compound, the “inhibition of cell proliferation (WST-1)” value [3] was “Only the carrier penetratin-peptide complex was effective”.
